Test results reported in US7129053 (DAKOCYTOMATION DENMARK A S, dated 2006).

Target: T1, H. pylori catalase (Helicobacter pylori, UniProt P77872 1-505)
T1 construct: mature; also called katalase; immunizing antigen
T1 sequence (looked up): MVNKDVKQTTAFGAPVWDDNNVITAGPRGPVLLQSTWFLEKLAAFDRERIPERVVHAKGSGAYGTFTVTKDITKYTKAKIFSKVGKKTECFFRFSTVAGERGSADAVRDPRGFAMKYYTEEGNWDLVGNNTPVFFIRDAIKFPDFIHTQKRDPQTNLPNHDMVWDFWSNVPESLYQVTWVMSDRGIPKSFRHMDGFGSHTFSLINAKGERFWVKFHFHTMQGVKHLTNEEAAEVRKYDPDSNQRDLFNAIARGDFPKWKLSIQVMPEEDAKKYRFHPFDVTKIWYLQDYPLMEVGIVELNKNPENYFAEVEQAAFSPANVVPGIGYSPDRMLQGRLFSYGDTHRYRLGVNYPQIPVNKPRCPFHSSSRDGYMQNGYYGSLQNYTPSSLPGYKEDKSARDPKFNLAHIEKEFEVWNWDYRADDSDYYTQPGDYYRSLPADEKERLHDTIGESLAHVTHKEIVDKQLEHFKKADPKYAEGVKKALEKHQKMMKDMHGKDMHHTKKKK
Experiment: SPR (BIAcore), catalase amine-coupled on CM5 chip, antibody 20-670 nM in flow
Experimental: Catalase was Immobilized through amine coupling on the dextrane matrix of the BIAcore CM5 sensor chip. For the activation of the dextrane matrix 45 μl of a 1:1-mixture of 0.05 M N-hydroxysuccinimide (NHS) and 0.2 M 1-ethyl-3-3-dimethylaminopropyl)carbodiimide (EDC) solution was conducted over the sensor chip at a flow rate of 5 μl/min. Then, the catalase (35 μl; 50 μg/ml in 10 mM sodium acetate, pH 5.0) were bound to the dextrane matrix. The remaining NHS ester was deactivated with 1 M ethanolamine (35 μl). Catalase that was not covalently bound to the dextrane matrix was removed by regenerating the sensor chip with HCl (10 mM; 15 μl).
By adding the catalase-specific monoclonal antibodies, these were made react with immobilized catalase and the mass attachment to the detector was measured. Antibody solutions in different concentrations ranging from 20 to 670 nM were used. They were injected via the catalase immobilized on the sensor chip at a flow rate of 25 μl/min each.
The values for the rate constants of the adsorption ($kon$) and desorption ($koff$) of the antibody could be calculated (BIAevaluation software 3.0).

| Binder | Kd [nM] | koff [s⁻¹] | kon [M⁻¹ s⁻¹] |
| --- | --- | --- | --- |
| monoclonal antibody HP25.2m/2H10 (antibody, IgG2a, V domains shown, also called HP25.2m/2H10 (K10); HP25.2m/2Hallin (K10)) VH: VQLLEQPGAELAKPGASVKMSCKASGYTFTNYWIHWVKQRPGQGLKWIGYINPATGSTSYNQDFQDRATLTADKSSTTAYMQLTSLTSEDSSVYYCAREGYDGFDSWGQGTTLTVSS VL: ELVLTQSPAIMSASPGEKVTMTCSASSSVNYMYWYQQKSGTSPKRWIYDTSKLASGVPARFSGSGSGTSYSLTLSSMEAEDAATYYCQQWSSNPYTFGGGTKLEIK | 0.271 | 3.9e-05 | 144000 |
| monoclonal antibody HP25.6m/1B5 (antibody, IgG1, V domains shown, also called HP25.6m1/1B5) VH: EVQLQQSGAELVKPGASVKLSCTSSGFNIKDTYVHWMKQRPEQGLEWIGKIDPANGKTKYDPIFQAKATMTADASSNTAYLQLSSLTSEDTAVYYCALPIYYASSWFAYWGQGTLVTVSA VL: DIVMTQSHKFMSTSVGDRVSITCKASQDVGTSVAWYQQKPGHSPKLLIYWTSTRHTGVPDRFTGSGSGTDFILTISNVQSEDLADYFCQQYSSSPTFGGGAKVEIK | 0.681 | 3.86e-05 | 56700 |
